Test system: Hfq (His-tagged) (Burkholderia cenocepacia J2315?)
Test: EMSA
Conditions: RNA binding buffer (composition in cited ref. 21), 25 ul, 30 min at 25 C, salt and pH not stated

Substance | Kd (apparent Kd, 2.5 nM RNA, 0-10 nM Hfq6, excess yeast tRNA, excess unlabelled yeast …) | Kd (excess unlabelled yeast tRNA)
h2cR sRNA (136 nt) | 1.5 nM | –
hfq2 5'-UTR (216 nt) | – | 9.5 nM

— PMC3474761
